The text below walks through data of article PMC8041291.

For data set [1], the system named is Cterm (position 3, ---ECG-----). The data set is described as follows: potentiometry. As to conditions: 25 °C; 0.1 M (4 mM HNO3 + 96 mM KNO3); none (4 mM HNO3 / 96 mM KNO3); metal-free peptide, reduced thiols, argon atmosphere, 0.5-1.5 mM ligand.
In data set [2] the test system is Cys2 (position 2, ----ECG----). Put plainly: potentiometry. As to conditions: 25 °C; 0.1 M (4 mM HNO3 + 96 mM KNO3); none (4 mM HNO3 / 96 mM KNO3); metal-free peptide, reduced thiols, argon atmosphere, 0.5-1.5 mM ligand.
Data set [3] relates to Glu1 (position 1, -----ECG---). Put plainly: potentiometry. As to conditions: 25 °C; 0.1 M (4 mM HNO3 + 96 mM KNO3); none (4 mM HNO3 / 96 mM KNO3); metal-free peptide, reduced thiols, argon atmosphere, 0.5-1.5 mM ligand.
The subject of data set [4] is Nterm (position 1, -----ECG---). Put plainly: potentiometry. As to conditions: 25 °C; 0.1 M (4 mM HNO3 + 96 mM KNO3); none (4 mM HNO3 / 96 mM KNO3); metal-free peptide, reduced thiols, argon atmosphere, 0.5-1.5 mM ligand.
Data set [5] has as its target Cys1. The data set is described as follows: NMR. As to conditions: metal-free PC2; cited from earlier work.
The target in data set [6] is Cys2. Put plainly: NMR. As to conditions: metal-free PC2; cited from earlier work.
Data set [7] concerns the target Nterm1. Put plainly: NMR. As to conditions: metal-free PC2; cited from earlier work.
The next data set concerns the target Cterm5. Put plainly: potentiometry. As to conditions: 25 °C; 0.1 M (4 mM HNO3 + 96 mM KNO3); none (4 mM HNO3 / 96 mM KNO3); metal-free peptide, reduced thiols, argon atmosphere, 0.5-1.5 mM ligand.
The target in data set [8] is Cys1. The data set is described as follows: potentiometry. As to conditions: 25 °C; 0.1 M (4 mM HNO3 + 96 mM KNO3); none (4 mM HNO3 / 96 mM KNO3); metal-free peptide, reduced thiols, argon atmosphere, 0.5-1.5 mM ligand.
Data set [9] deals with Cys2. The data set is described as follows: potentiometry. As to conditions: 25 °C; 0.1 M (4 mM HNO3 + 96 mM KNO3); none (4 mM HNO3 / 96 mM KNO3); metal-free peptide, reduced thiols, argon atmosphere, 0.5-1.5 mM ligand.
The next data set concerns the target Glu1. Put plainly: potentiometry. As to conditions: 25 °C; 0.1 M (4 mM HNO3 + 96 mM KNO3); none (4 mM HNO3 / 96 mM KNO3); metal-free peptide, reduced thiols, argon atmosphere, 0.5-1.5 mM ligand.
The target in a further data set is Glu2. The data set is described as follows: potentiometry. As to conditions: 25 °C; 0.1 M (4 mM HNO3 + 96 mM KNO3); none (4 mM HNO3 / 96 mM KNO3); metal-free peptide, reduced thiols, argon atmosphere, 0.5-1.5 mM ligand.
For data set [10], the target named is Nterm1. Put plainly: potentiometry. As to conditions: 25 °C; 0.1 M (4 mM HNO3 + 96 mM KNO3); none (4 mM HNO3 / 96 mM KNO3); metal-free peptide, reduced thiols, argon atmosphere, 0.5-1.5 mM ligand.

The pKa is the negative logarithm of the acid dissociation constant. For the molecule “Glutathione (GSH, reduced) (not applicable (commercial reduced L-glutathione, Sigma-Aldrich))”, the pKa in data set [1] worked out at 3.64; in [2], 8.76; in [3], 1.95; in data set [4], 9.65.

Regarding ECECG, the pKa in the data set with Cys1 [5] was 9.53; with Cys2 [6], 9.40; with Nterm1 [7] it was 10.01; with Cterm5, 4.30; with Cys1 [8] it was 9.69; with Cys2 [9], 8.59. The pKa is reported as 2.43 with Glu1, 3.17 in the data set with Glu2 and 10.25 with Nterm1 [10].
